The stoichiometry N is the number of molecules, sites or subunits per partner or assembly. In general, Kd refers to the constant that tells how readily two partners part at equilibrium. Read a high Kd as lower affinity.

Data set [1] concerns the target HHV-8 gH/gL ectodomain complex (insect cell, for crystallization) (human herpesvirus 8 (HHV-8)) (UniProt F5HAK9). Kind of data set: SEC-MALS.
Data set [2] concerns the target EphA2 LBD (res. 27 to 202), wild type (human, UniProt P29317 27-202). Kind of data set: BLI. The settings on record: both partners purified.
The target in data set [3] is T1, EphA2 ectodomain (res. 27 to 534), wild type (human, UniProt P29317 27-534).
T1 construct: also called WT EphA2 ectodomain
Kind of data set: BLI. The note with it: both partners purified.

Data set [4] deals with the molecule itself. As to the kind of experiment: crystal structure.

Chain of HHV-8 gH/gL ectodomain complex (insect cell, for crystallization) (human herpesvirus 8 (HHV-8)) (F5HAK9 whole entry, looked up, the tested form may be a part, one chain of several): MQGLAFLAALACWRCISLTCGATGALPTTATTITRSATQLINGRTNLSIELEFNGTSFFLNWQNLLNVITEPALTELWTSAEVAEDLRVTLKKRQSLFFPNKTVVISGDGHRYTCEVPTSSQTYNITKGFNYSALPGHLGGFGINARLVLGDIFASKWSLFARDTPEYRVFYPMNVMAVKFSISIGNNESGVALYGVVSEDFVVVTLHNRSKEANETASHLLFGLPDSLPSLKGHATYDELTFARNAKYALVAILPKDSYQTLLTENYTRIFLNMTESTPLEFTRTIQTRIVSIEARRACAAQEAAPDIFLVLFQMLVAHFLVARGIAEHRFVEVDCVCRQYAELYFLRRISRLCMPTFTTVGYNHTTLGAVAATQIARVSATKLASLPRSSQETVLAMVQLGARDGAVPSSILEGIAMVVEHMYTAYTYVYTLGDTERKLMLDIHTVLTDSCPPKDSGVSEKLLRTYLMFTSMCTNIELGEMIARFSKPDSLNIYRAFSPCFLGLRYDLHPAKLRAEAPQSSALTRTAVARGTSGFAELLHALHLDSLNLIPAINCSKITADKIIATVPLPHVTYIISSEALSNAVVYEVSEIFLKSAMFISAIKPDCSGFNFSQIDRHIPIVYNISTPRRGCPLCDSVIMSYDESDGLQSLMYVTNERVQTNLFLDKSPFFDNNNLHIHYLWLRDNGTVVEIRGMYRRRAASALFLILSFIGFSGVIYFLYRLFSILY
T1 sequence (P29317 27-534): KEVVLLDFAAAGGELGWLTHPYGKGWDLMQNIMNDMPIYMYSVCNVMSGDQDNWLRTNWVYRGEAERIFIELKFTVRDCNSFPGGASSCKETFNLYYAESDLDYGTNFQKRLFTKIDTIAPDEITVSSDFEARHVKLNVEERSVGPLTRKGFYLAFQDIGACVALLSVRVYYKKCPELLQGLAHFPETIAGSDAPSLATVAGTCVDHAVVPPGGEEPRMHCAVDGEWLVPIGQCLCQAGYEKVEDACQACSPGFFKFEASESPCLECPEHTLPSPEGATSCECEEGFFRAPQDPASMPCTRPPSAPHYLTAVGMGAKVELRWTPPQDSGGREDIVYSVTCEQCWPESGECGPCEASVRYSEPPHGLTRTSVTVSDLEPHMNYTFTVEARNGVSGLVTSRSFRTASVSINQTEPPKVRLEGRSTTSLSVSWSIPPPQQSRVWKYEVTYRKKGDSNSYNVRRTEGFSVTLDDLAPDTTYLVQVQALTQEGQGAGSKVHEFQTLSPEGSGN

As to “EphA2 ectodomain (res. 27 to 534), wild type (from UniProt P29317 27-534) (domain or fragment)”, the stoichiometry N in data set [1] is 1. The same measure, in the same setting: the figure for “EphA2 ligand-binding domain (residues 23 to 202), insect cell (from UniProt P29317 23-202) (domain or fragment)” is 1.

B1: HHV-8 gH^his/gL^st wild type (mammalian cells) (complex)
chain 1: LPTTATTITRSATQLINGRTNLSIELEFNGTSFFLNWQNLLNVITEPALTELWTSAEVAEDLRVTLKKRQSLFFPNKTVVISGDGHRYTCEVPTSSQTYNITKGFNYSALPGHLGGFGINARLVLGDIFASKWSLFARDTPEYRVFYPMNVMAVKFSISIGNNESGVALYGVVSEDFVVVTLHNRSKEANETASHLLFGLPDSLPSLKGHATYDELTFARNAKYALVAILPKDSYQTLLTENYTRIFLNMTESTPLEFTRTIQTRIVSIEARRACAAQEAAPDIFLVLFQMLVAHFLVARGIAEHRFVEVDCVCRQYAELYFLRRISRLCMPTFTTVGYNHTTLGAVAATQIARVSATKLASLPRSSQETVLAMVQLGARDGAVPSSILEGIAMVVEHMYTAYTYVYTLGDTERKLMLDIHTVLTDSCPPKDSGVSEKLLRTYLMFTSMCTNIELGEMIARFSKPDSLNIYRAFSPCFLGLRYDLHPAKLRAEAPQSSALTRTAVARGTSGFAELLHALHLDSLNLIPAINCSKITADKIIATVPLPHVTYIISSEALSNAVVYEVSEIFLKSAMFISAIKPDCSGFNFSQIDRHIPIVYNISTPRRGCPLCDSVIMSYDESDGLQSLMYVTNERVQTNLFLDKSPFFDNNNLHIHYLWLRDNGTVVEIRGMYRRRAAS
chain 2: YVALPCCAIQASAASTLPLFFAVHSIHFADPNHCNGVCIAKLRSKTGDITVETCVNGFNLRSFLVAVVRRLGSWASQENLRLLWYLQRSLTAYTVGFNATTADSSIHNVNIIIISVGKAMNRTGSVSGSQTRAKSSSRRAHAGQKGK
Turning to B1, the Kd in data set [2] and in data set [3] was under 1 nM throughout.

B2: EphA2 ligand-binding domain (residues 23 to 202), insect cell (domain or fragment, human, UniProt P29317 23-202, looked up)
chain: AAQGKEVVLLDFAAAGGELGWLTHPYGKGWDLMQNIMNDMPIYMYSVCNVMSGDQDNWLRTNWVYRGEAERIFIELKFTVRDCNSFPGGASSCKETFNLYYAESDLDYGTNFQKRLFTKIDTIAPDEITVSSDFEARHVKLNVEERSVGPLTRKGFYLAFQDIGACVALLSVRVYYKKCP
notes: also called EphA2 LBD; LBD
With B2, the binding result in data set [4] is reported as “binds”.

For the origin of these results see article PMC8454987 (PLoS Biology, 2021).
